Test results published in article PMC11362210, “N-carboxyacyl and N-α-aminoacyl derivatives of aminoaldehydes as shared substrates of plant aldehyde dehydrogenases 10 and 7” (Amino Acids, 2024).

Assays:
Test in all cases: purified protein
purified protein [1] = substrate: NCCC=O; format: biochemical, Lathyrus oleraceus; conditions: 1 mM NAD+, 0.15 M Tris-HCl, pH 9.0
purified protein [2] = substrate: NCCCC=O; format: biochemical, Lathyrus oleraceus; conditions: 1 mM NAD+, 0.15 M Tris-HCl, pH 9.0
purified protein [3] = substrate: N[C@@H](Cc1ccc(O)cc1)C(=O)NCCCC=O; format: biochemical, Lathyrus oleraceus; conditions: 1 mM NAD+, 0.15 M Tris-HCl, pH 9.0
purified protein [4] = substrate: N[C@@H](Cc1ccccc1)C(=O)NCCCC=O; format: biochemical, Lathyrus oleraceus
purified protein [5] = substrate: O=CCCCNC(=O)CCC(=O)O; format: biochemical, Lathyrus oleraceus; conditions: 1 mM NAD+, 0.15 M Tris-HCl, pH 9.0
purified protein [6] = substrate: O=CCCCNC(=O)CCCC(=O)O; format: biochemical, Lathyrus oleraceus; conditions: 1 mM NAD+, 0.15 M Tris-HCl, pH 9.0
purified protein [7] = substrate: O=CCCNC(=O)CCC(=O)O; format: biochemical, Lathyrus oleraceus; conditions: 1 mM NAD+, 0.15 M Tris-HCl, pH 9.0
purified protein [8] = substrate: O=CCCNC(=O)CCCC(=O)O; format: biochemical, Lathyrus oleraceus; conditions: 1 mM NAD+, 0.15 M Tris-HCl, pH 9.0
purified protein [9] = substrate: N[C@@H](CCCC=O)C(=O)O; format: biochemical, Lathyrus oleraceus; conditions: 2.5 mM NAD+, 0.1 M sodium pyrophosphate, pH 8.1
purified protein [10] = substrate: N[C@@H](Cc1ccc(O)cc1)C(=O)NCCC=O; format: biochemical, Lathyrus oleraceus; conditions: 2.5 mM NAD+, 0.1 M sodium pyrophosphate, pH 8.1
purified protein [11] = substrate: N[C@@H](Cc1ccccc1)C(=O)NCCC=O; format: biochemical, Lathyrus oleraceus; conditions: 2.5 mM NAD+, 0.1 M sodium pyrophosphate, pH 8.1
purified protein [12] = substrate: O=CCCCNC(=O)CC(=O)O; format: biochemical, Lathyrus oleraceus; conditions: 2.5 mM NAD+, 0.1 M sodium pyrophosphate, pH 8.1
purified protein [13] = substrate: O=CCCNC(=O)CC(=O)O; format: biochemical, Lathyrus oleraceus; conditions: 2.5 mM NAD+, 0.1 M sodium pyrophosphate, pH 8.1
purified protein [14] = substrate: N[C@@H](CCCC=O)C(=O)O; format: biochemical, Zea mays; conditions: 2.5 mM NAD+, 0.1 M sodium pyrophosphate, pH 8.1
purified protein [15] = substrate: N[C@@H](Cc1ccc(O)cc1)C(=O)NCCC=O; format: biochemical, Zea mays; conditions: 2.5 mM NAD+, 0.1 M sodium pyrophosphate, pH 8.1
purified protein [16] = substrate: N[C@@H](Cc1ccccc1)C(=O)NCCC=O; format: biochemical, Zea mays; conditions: 2.5 mM NAD+, 0.1 M sodium pyrophosphate, pH 8.1
purified protein [17] = substrate: N[C@@H](Cc1ccccc1)C(=O)NCCCC=O; format: biochemical, Zea mays; conditions: 2.5 mM NAD+, 0.1 M sodium pyrophosphate, pH 8.1
purified protein [18] = substrate: O=CCCCNC(=O)CC(=O)O; format: biochemical, Zea mays; conditions: 2.5 mM NAD+, 0.1 M sodium pyrophosphate, pH 8.1
purified protein [19] = substrate: O=CCCNC(=O)CC(=O)O; format: biochemical, Zea mays; conditions: 2.5 mM NAD+, 0.1 M sodium pyrophosphate, pH 8.1
[20] = 1 mM NAD+, 0.15 M Tris-HCl, pH 9.0
[21] = 2.5 mM NAD+, 0.1 M sodium pyrophosphate, pH 8.1

B1: PsAMADH (native pea aminoaldehyde dehydrogenase, prevailing isoenzyme 1) (Lathyrus oleraceus) (protein)
chain: MAITVSSRQLFIDGEWRVPILNKRIPNINPSTENIIGDIPAATKEDVDLAVDAAKRAISRKNGRDWSAASGSLRARYLRAIAAKIKEKKDELGKLESIDCGKPLEEALADLDDVVACFEYYAGLAEELDSKQKAPISLPMDTFKSYILKEPIGVVALITPWNYPFLMATWKIAPALAAGCAAILKPSELASVTCLELGEICKEVGLPRGVLNIVTGLGHEAGASLASHPDVDKISFTGSSATGSKIMTTAAQLVKPVSLELGGKSPIVVFEDVDLDKVAEWTVFGCFFTNGQICSATSRLIVHESIAVEFVDKLVKWAENIKISDPLEEGCRLGPIVSEAQYKKVLNCISSAKSEGATILTGGRRPEHLKKGYFVEPTIITDVTTSMQIWREEVFGPVLAVKTFSTEEEAINLANDTHYGLGSAVMSNDLERCERLSKALQAGIVWINCAQPSFIQAPWGGIKRSGFGRELGEWGLENYLSVKQVTRYTSDEPWGWYQPPSKL
notes: native, purified from 7-day-old etiolated pea seedlings
- Km (purified protein [1]): 136 ± 11 µM
- kcat (purified protein [1]): 3.36 ± 0.2 s⁻¹
- kcat/Km (purified protein [1]): 24700 M⁻¹ s⁻¹
- Km (purified protein [2]): 103 ± 17 µM
- kcat (purified protein [2]): 1.34 ± 0.07 s⁻¹
- kcat/Km (purified protein [2]): 13000 M⁻¹ s⁻¹
- Km (purified protein [3]): 174 ± 42 µM
- kcat (purified protein [3]): 0.22 ± 0.04 s⁻¹
- kcat/Km (purified protein [3]): 1300 M⁻¹ s⁻¹
- Km (purified protein [4]; [20]): 101 ± 10 µM
- kcat (purified protein [4]; [20]): 0.17 s⁻¹
- kcat/Km (purified protein [4]; [20]): 1700 M⁻¹ s⁻¹
- Km (purified protein [5]): 138 ± 6 µM
- kcat (purified protein [5]): 1.61 ± 0.07 s⁻¹
- kcat/Km (purified protein [5]): 11700 M⁻¹ s⁻¹
- Km (purified protein [6]): 427 ± 33 µM
- kcat (purified protein [6]): 1.49 ± 0.11 s⁻¹
- kcat/Km (purified protein [6]): 3500 M⁻¹ s⁻¹
- Km (purified protein [7]): 513 ± 36 µM
- kcat (purified protein [7]): 4.13 ± 0.2 s⁻¹
- kcat/Km (purified protein [7]): 8100 M⁻¹ s⁻¹
- Km (purified protein [8]): 506 ± 92 µM
- kcat (purified protein [8]): 1.29 ± 0.14 s⁻¹
- kcat/Km (purified protein [8]): 2500 M⁻¹ s⁻¹

B2: PsALDH7 (Lathyrus oleraceus) (protein)
chain: GSDSNNLGFLKEIGLGATNIGSFINGQWKANGPTVHSVNPSTNQVIASVTEATLDDYEEGLRASSEAAKTWRTVPAPKRGEIVRQIGDALRAKLDPLGRLVALEMGKILAEGIGEVQEIIDMCDYSVGLSRQLNGSIIPSERPEHMMFEVWNPLGIVGVITAFNFPCAVLGWNACIALVGGNTVVWKGAPTTPLITVAVTKLIAEVFERNNLPGAIFTALCGGADIGHAIAKDTRIPLVSFTGSSKVGALVQQTVSQRFGKTLLELSGNNAIIVMDDADITLAVRSIFFAAVGTAGQRCTTCRRLYLHESVYANVLEQLTALYKQVKIGNPLEEGTLVGPLHTRSAVENFKNGISAIKSQGGKIVTGGSVLESEGNFVVPTIVEISADAAVVKEELFAPVLYVMKFKDLEEAIALNNSVPQGLSSSIFTQKPSTIFKWIGPSGSDCGIVNVNIPTNGAEIGGAFGGEKATGGGREAGSDSWKQYMRRSTCTINYGSELPLAQGINFG
notes: recombinant
- Km (purified protein [9]): 172 ± 32 µM
- kcat (purified protein [9]): 0.77 ± 0.09 s⁻¹
- kcat/Km (purified protein [9]): 4500 M⁻¹ s⁻¹
- Km (purified protein [10]): 252 ± 45 µM
- kcat (purified protein [10]): 0.09 ± 0.01 s⁻¹
- kcat/Km (purified protein [10]): 360 M⁻¹ s⁻¹
- Km (purified protein [11]): 74 ± 7 µM
- kcat (purified protein [11]): 0.07 s⁻¹
- kcat/Km (purified protein [11]): 950 M⁻¹ s⁻¹
- Km (purified protein [4]; [21]): 656 ± 55 µM
- kcat (purified protein [4]; [21]): 0.04 s⁻¹
- kcat/Km (purified protein [4]; [21]): 61 M⁻¹ s⁻¹
- Km (purified protein [12]): 703 ± 72 µM
- kcat (purified protein [12]): 0.13 ± 0.01 s⁻¹
- kcat/Km (purified protein [12]): 180 M⁻¹ s⁻¹
- Km (purified protein [13]): 2522 ± 203 µM
- kcat (purified protein [13]): 0.19 ± 0.01 s⁻¹
- kcat/Km (purified protein [13]): 75 M⁻¹ s⁻¹

B3: ZmALDH7 (Zea mays) (protein)
chain: MGAFAKEEHQFLAELGLAQRNPGAFACGAWGGSGPTVTSTSPTNNQVIAEVVEASVHDYEEGMRACFDAAKTWMAIPAPKRGEIVRQIGDALRAKLHHLGRLVSLEMGKILPEGIGEVQEIIDMCDYAVGLSRQLNGSIIPSERPNHMMMEVWNPLGVVGVITAFNFPCAVLGWNACIALVCGNCVVWKGAPTTPLITIAMTKIVASVLEKNNLPGAIFTSFCGGTEIGQAIALDIRIPLVSFTGSTRAGLMVQQQVSARFGKCLLELSGNNAIIVMDDADIQLAVRSVLFAAVGTAGQRCTTCRRLILHENIYQTFLDQLVEVYKQVRIGDPLEKGTLLGPLHTPASKENFLKGIQTIKSQGGKILFGGSAIESEGNFVQPTIVEITPSAPVVKEELFGPVLYVMKFQSLKEAIEINNSVPQGLSSSIFTKRPDIIFKWLGPHGSDCGIVNVNIPTNGAEIGGAFGGEKATGGGREAGSDSWKQYMRRATCTINYGSELPLAQGINFG
notes: recombinant
- Km (purified protein [14]): 191 ± 14 µM
- kcat (purified protein [14]): 0.77 ± 0.04 s⁻¹
- kcat/Km (purified protein [14]): 4000 M⁻¹ s⁻¹
- Km (purified protein [15]): 216 ± 56 µM
- kcat (purified protein [15]): 0.06 ± 0.01 s⁻¹
- kcat/Km (purified protein [15]): 280 M⁻¹ s⁻¹
- Km (purified protein [16]): 66 ± 12 µM
- kcat (purified protein [16]): 0.06 ± 0.01 s⁻¹
- kcat/Km (purified protein [16]): 910 M⁻¹ s⁻¹
- Km (purified protein [17]): 457 ± 55 µM
- kcat (purified protein [17]): 0.02 s⁻¹
- kcat/Km (purified protein [17]): 44 M⁻¹ s⁻¹
- Km (purified protein [18]): 1493 ± 225 µM
- kcat (purified protein [18]): 0.18 ± 0.01 s⁻¹
- kcat/Km (purified protein [18]): 120 M⁻¹ s⁻¹
- Km (purified protein [19]): 1997 ± 142 µM
- kcat (purified protein [19]): 0.15 ± 0.01 s⁻¹
- kcat/Km (purified protein [19]): 75 M⁻¹ s⁻¹
